Assay results: US20210087281A1 (AGOMAB THERAPEUTICS, published 2021)
Numbering of substitutions follows the chain as printed.

Columns and labels:
[1] = biological target: T1, native human MET on living cells (human, UniProt P08581 25-1390); experiment: cell-based or functional assay
[2] = biological target: T2, native mouse MET on living cells (mouse, UniProt P16056 25-1379); experiment: cell-based or functional assay
[3] = biological target: T1, native human MET on living cells; experiment: cell-based or functional assay; remark: listed apart in the source
[4] = biological target: T2, native mouse MET on living cells; experiment: cell-based or functional assay; remark: listed apart in the source
[5] = biological target: T1, native human MET on living cells; experiment: cell-based or functional assay; remark: listed apart in the source
[6] = biological target: T2, native mouse MET on living cells; experiment: cell-based or functional assay; remark: listed apart in the source
[7] = biological target: T1, native human MET on living cells; experiment: cell-based or functional assay; remark: listed apart in the source
[8] = biological target: T2, native mouse MET on living cells; experiment: cell-based or functional assay; remark: listed apart in the source
[9] = biological target: T1, native human MET on living cells; experiment: flow cytometry, A549 cells
Protocol: (§1) We also analysed whether chimeric anti-MET antibodies bound to native human and mouse MET in living cells. […] Antibody binding to cells was analysed by flow cytometry using phycoerythrin-conjugated anti-human IgG1 antibodies (eBioscience) and a CyAn ADP analyser (Beckman Coulter). As a positive control for human MET binding, we used a commercial mouse anti-human MET antibody (R&D Systems) and phycoerythrin-conjugated anti-mouse IgG1 antibodies (eBioscience).
(§2) As a positive control for mouse MET binding we used a commercial goat anti-mouse MET antibody (R&D Systems) and phycoerythrin-conjugated anti-goat IgG1 antibodies (eBioscience). […] Consistent with the data obtained in ELISA, maximal binding (EMAX) varied depending on antibody, but was similar in human and mouse cells.

[10] = biological target: T2, native mouse MET on living cells; experiment: flow cytometry, MLP29 cells
Protocol: as §1, §2

[11] = biological target: human MET ECD mutant A (mutations 1, 2, 3) (human) (UniProt P08581); experiment: ELISA, MET ECD in solid phase, mAb 0-50 nM
[12] = biological target: human MET ECD mutant D (mutations 1, 2) (human) (UniProt P08581); experiment: ELISA, MET ECD in solid phase, mAb 0-50 nM
[13] = biological target: human MET ECD mutant E (mutations 2, 3, 4) (human) (UniProt P08581); experiment: ELISA, MET ECD in solid phase, mAb 0-50 nM
[14] = biological target: human MET ECD mutant H (mutations 2, 4) (human) (UniProt P08581); experiment: ELISA, MET ECD in solid phase, mAb 0-50 nM
human MET ECD [15] = biological target: T3, human MET ECD (human, UniProt P08581 25-932); experiment: ELISA, MET ECD in solid phase, mAb 0-20 nM
T3 construct: range 1-932; recombinant ECD made by the applicants; the stated range begins at residue 1, so it includes the signal peptide of the entry; also called hMET; hMET ECD
Protocol: (§3) Production (by transient transfection of mammalian cells) and purification (by protein A affinity chromatography) of the resulting chimeric llama-human IgG1 molecules was outsourced to U-protein Express. Binding of chimeric mAbs to MET was determined by ELISA using hMET or mMET ECD in solid phase and increasing concentrations of antibodies (0-20 nM) in solution. […] Binding capacity (EMAX) varied from antibody to antibody, possibly due to partial epitope exposure in the immobilized antigen, but was similar in the human and mouse setting.

mouse MET ECD = biological target: T4, mouse MET ECD (mouse, UniProt P16056 25-931); experiment: ELISA, MET ECD in solid phase, mAb 0-20 nM
T4 construct: range 1-931; recombinant ECD made by the applicants; the stated range begins at residue 1; also called mMET; mMET ECD
Protocol: as §3

human MET ECD [16] = biological target: T3, human MET ECD; experiment: ELISA, MET ECD in solid phase, mAb 0-50 nM
Protocol: Using human MET as a template, we mutagenized each of these residues in different permutations, generating a series of MET mutants that are fully human except for specific residues, which are llama. Next, we tested the affinity of selected SEMA-binding mAbs (71D6, 71C3, 71D4, 71A3, 71G2) and PSI-binding mAbs (76H10 and 71G3) for these MET mutants by ELISA. To this end, the various MET proteins were immobilized in solid phase (100 ng/well in a 96-well plate) and then exposed to increasing concentrations of antibodies (0-50 nM) solution. […] Wild-type human MET was used as positive control.
TABLE 18 The epitopes of MET responsible for agonistic antibody binding represent residues conserved among H. sapiens, M. musculus, R. norvegicus, M. fascicularis but not among the same species and L. glama. The relevance of residues conserved among human, mouse, rat, cynomolgus monkey but not llama MET for binding to agonistic mAbs was tested by ELISA. Wild-type (WT) or mutant (MT) human MET ECD was immobilized in solid phase and exposed to increasing concentrations of mAbs in solution. […] All binding values were normalized to the WT protein and are expressed as % binding (EMAX) compared to WT MET.

[17] = biological target: T5, human MET-Fc (R&D Systems) (human, UniProt P08581 25-932); experiment: competition ELISA, hMET-Fc in solid phase, competitor 0.3 nM biotinylated hHGF
T5 construct: extracellular domain; bought chimeric protein; also called hMET; not shown: Fc portion of human IgG1
Protocol: (§4) To investigate along this line, we tested the competition between mAbs and HGF by ELISA. Recombinant human and mouse HGF (R&D Systems) were biotinylated at the N-terminus using NHS-LC-biotin (Thermo Scientific). MET-Fc protein, either human or mouse (R&D Systems), was immobilized in solid phase and then exposed to 0.3 nM biotinylated HGF, either human or mouse, in the presence of increasing concentrations of antibodies (0-120 nM).
(§5) A MET-Fc chimeric protein (either human or mouse) was immobilized in solid phase and exposed to a fixed concentration of biotinylated HGF (either human or mouse), in the presence of increasing concentrations of antibodies. […] Antibody-HGF competition is expressed as IC₅₀ (the concentration that achieves 50% competition) and IMAX (the maximum % competition reached at saturation).

[18] = biological target: T6, mouse MET-Fc (R&D Systems) (mouse, UniProt P16056 25-929, limits assumed); experiment: competition ELISA, mMET-Fc in solid phase, competitor 0.3 nM biotinylated mHGF
T6 construct: bought chimeric protein; also called mMET; not shown: Fc part
Protocol: as §4, §5

T1 sequence (P08581 25-1390): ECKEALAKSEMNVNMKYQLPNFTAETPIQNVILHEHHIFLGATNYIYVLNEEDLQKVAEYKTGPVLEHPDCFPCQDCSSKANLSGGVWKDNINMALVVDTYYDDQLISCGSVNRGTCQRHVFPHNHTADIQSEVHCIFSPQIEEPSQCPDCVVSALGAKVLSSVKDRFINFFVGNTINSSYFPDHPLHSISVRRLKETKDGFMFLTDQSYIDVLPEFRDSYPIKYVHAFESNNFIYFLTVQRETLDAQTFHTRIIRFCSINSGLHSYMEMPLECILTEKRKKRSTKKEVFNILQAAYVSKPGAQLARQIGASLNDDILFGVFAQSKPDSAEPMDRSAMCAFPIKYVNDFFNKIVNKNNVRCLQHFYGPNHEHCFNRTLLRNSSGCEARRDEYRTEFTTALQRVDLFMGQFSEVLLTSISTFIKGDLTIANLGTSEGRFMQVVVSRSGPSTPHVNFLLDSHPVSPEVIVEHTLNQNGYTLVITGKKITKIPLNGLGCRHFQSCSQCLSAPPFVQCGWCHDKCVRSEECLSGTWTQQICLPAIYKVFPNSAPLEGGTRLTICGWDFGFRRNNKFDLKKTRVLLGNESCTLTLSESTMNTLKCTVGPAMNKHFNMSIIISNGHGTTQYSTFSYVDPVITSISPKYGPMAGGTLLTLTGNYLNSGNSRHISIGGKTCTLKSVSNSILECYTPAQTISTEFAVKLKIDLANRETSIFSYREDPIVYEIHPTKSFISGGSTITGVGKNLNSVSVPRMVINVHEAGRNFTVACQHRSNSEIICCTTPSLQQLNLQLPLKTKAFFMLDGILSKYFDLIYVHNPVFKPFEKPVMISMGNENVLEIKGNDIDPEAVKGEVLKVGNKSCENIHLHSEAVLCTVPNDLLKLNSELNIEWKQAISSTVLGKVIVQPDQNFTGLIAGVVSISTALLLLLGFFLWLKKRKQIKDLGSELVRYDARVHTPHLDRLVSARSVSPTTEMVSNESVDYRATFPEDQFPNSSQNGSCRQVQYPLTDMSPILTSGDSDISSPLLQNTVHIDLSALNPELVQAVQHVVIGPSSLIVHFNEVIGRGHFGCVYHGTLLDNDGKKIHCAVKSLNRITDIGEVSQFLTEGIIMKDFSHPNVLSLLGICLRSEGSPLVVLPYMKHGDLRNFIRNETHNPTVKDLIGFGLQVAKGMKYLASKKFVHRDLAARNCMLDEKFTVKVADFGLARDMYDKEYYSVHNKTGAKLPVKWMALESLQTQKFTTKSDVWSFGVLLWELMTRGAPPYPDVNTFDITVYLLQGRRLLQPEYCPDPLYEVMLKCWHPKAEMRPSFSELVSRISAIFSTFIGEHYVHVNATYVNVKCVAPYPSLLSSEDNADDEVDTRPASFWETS
T3 sequence (P08581 25-932 limits assumed, form in doubt): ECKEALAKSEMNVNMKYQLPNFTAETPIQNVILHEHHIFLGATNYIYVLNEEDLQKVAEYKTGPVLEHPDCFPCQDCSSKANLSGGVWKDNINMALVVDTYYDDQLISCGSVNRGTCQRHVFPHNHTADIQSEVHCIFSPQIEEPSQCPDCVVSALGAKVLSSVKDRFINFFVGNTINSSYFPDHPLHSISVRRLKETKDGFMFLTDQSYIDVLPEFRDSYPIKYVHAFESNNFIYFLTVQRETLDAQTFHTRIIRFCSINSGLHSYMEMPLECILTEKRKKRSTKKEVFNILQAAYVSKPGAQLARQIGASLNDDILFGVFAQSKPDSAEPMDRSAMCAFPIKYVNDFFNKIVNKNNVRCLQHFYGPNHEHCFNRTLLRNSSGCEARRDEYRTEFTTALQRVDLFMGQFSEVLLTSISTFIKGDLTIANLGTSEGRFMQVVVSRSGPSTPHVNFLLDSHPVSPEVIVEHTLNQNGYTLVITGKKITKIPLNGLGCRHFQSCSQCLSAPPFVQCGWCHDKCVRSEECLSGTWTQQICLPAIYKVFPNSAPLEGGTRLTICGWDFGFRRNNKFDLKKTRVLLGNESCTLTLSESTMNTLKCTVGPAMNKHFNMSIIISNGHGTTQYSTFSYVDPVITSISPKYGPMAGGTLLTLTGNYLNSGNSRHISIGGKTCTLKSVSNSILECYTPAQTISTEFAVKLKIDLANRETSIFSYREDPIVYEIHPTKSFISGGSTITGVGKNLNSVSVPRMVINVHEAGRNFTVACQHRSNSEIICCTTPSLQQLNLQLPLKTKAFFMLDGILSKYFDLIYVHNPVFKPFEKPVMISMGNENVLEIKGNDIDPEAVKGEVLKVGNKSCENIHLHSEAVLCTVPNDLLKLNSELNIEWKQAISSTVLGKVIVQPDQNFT
T5 sequence (P08581 25-932): as the sequence (P08581 25-932 limits assumed, form in doubt) above

B1: 71D6 chimeric llama-human IgG1 mAb (antibody, V domains shown)
VH: ELQLVESGGGLVQPGGSLRLSCAASGFTFSSYGMSWVRQAPGKGLEWVSAINSYGGSTSYADSVKGRFTISRDNAKNTLYLQMNSLKPEDTAVYYCAKEVRADLSRYNDYESYDYWGQGTQVTVSS
VL: QPVLNQPSALSVTLGQTAKITCQGGSLGARYAHWYQQKPGQAPVLVIYDDDSRPSGIPERFSGSSSGGTATLTISGAQAEDEGDYYCQSADSSGSVFGGGTHLTVL
notes: llama VH on human IgG1 CH1-CH2-CH3, llama VL on human lambda CL
[1]
  phospho-MET ELISA EC50, A549 cells: 0.32 nM
  phospho-MET ELISA EMAX (% HGF activity), A549 cells: 102%
[2]
  phospho-MET ELISA EC50, MLP29 cells: 0.21 nM
  phospho-MET ELISA EMAX (% HGF activity), MLP29 cells: 115%
[3]
  scatter score 0-4, HPAF-II, 0.001 nM: 0 score
  scatter score 0-4, HPAF-II, 0.004 nM: 1 score
  scatter score 0-4, HPAF-II, 0.012 nM: 2 score
  scatter score 0-4, HPAF-II, 0.037 nM: 3 score
  scatter score 0-4, HPAF-II, 0.111 nM: 4 score
  scatter score 0-4, HPAF-II, 0.333 nM: 4 score
  scatter score 0-4, HPAF-II, 1.000 nM: 4 score
  scatter score 0-4, HPAF-II, 3.000 nM: 4 score
  scatter score 0-4, HPAF-II, 9.000 nM: 4 score
[4]
  scatter score 0-4, MLP29, 0.001 nM: 0 score
  scatter score 0-4, MLP29, 0.004 nM: 1 score
  scatter score 0-4, MLP29, 0.012 nM: 2 score
  scatter score 0-4, MLP29, 0.037 nM: 3 score
  scatter score 0-4, MLP29, 0.111 nM: 4 score
  scatter score 0-4, MLP29, 0.333 nM: 4 score
  scatter score 0-4, MLP29, 1.000 nM: 4 score
  scatter score 0-4, MLP29, 3.000 nM: 4 score
  scatter score 0-4, MLP29, 9.000 nM: 4 score
[5]
  protection from staurosporine, viability EC50, MCF10A cells: 1.48 nM
  protection from staurosporine, viability EMAX, MCF10A cells: 66.8%
[6]
  protection from staurosporine, viability EC50, MLP29 cells: 0.95 nM
  protection from staurosporine, viability EMAX, MLP29 cells: 68.3%
[7]
  branches per spheroid, LOC cells, 0.5 nM: 29 branches
  branches per spheroid, LOC cells, 2.5 nM: 29 branches
  branches per spheroid, LOC cells, 12.5 nM: 32.7 branches
[8]
  branches per spheroid, MLP29 cells, 0.5 nM: 32.7 branches
  branches per spheroid, MLP29 cells, 2.5 nM: 39 branches
  branches per spheroid, MLP29 cells, 12.5 nM: 41.3 branches
[9]
  EC50: 0.259 nM
  EMAX: 113 % relative to control
[10]
  EC50: 0.383 nM
  EMAX: 121 % relative to control
[11]
  % binding (EMAX) compared to WT MET: 103 % WT MET ECD
[12]
  % binding (EMAX) compared to WT MET: 128 % WT MET ECD
[13]
  % binding (EMAX) compared to WT MET: 43.6 % WT MET ECD
[14]
  % binding (EMAX) compared to WT MET: 38.6 % WT MET ECD
Human MET ECD [15]
  EC50: 0.026 nM
  EMAX (OD450): 2.08 AU
Mouse MET ECD
  EC50: 0.049 nM
  EMAX (OD450): 2.01 AU
Human MET ECD [16]
  % binding (EMAX) compared to WT MET: 100 % WT MET ECD
[17]
  IC50: 0.29 nM
  IMAX: 98.3%
[18]
  IC50: 0.34 nM
  IMAX: 90.5%

B2: 71C3 chimeric llama-human IgG1 mAb (antibody, V domains shown)
VH: B1 VH with E1Q, Y32H, G33A, Y54G, V100L, A102F, S105A, N108T, S112A, Y113W
VL: SYELTQPSALSVTLGQTAKITCQGGSLGSSYAHWYQQKPGQAPVLVIYDDDSRPSGIPERFSGSSSGGTATLTISGAQAEDEGDYYCQSADSSGNAAVFGGGTHLTVL
notes: as for B1
[1]
  phospho-MET ELISA EC50, A549 cells: 0.35 nM
  phospho-MET ELISA EMAX (% HGF activity), A549 cells: 86.2%
[2]
  phospho-MET ELISA EC50, MLP29 cells: 0.33 nM
  phospho-MET ELISA EMAX (% HGF activity), MLP29 cells: 98.8%
[3]
  scatter score 0-4, HPAF-II, 0.001 nM: 0 score
  scatter score 0-4, HPAF-II, 0.004 nM: 0 score
  scatter score 0-4, HPAF-II, 0.012 nM: 0 score
  scatter score 0-4, HPAF-II, 0.037 nM: 0 score
  scatter score 0-4, HPAF-II, 0.111 nM: 1 score
  scatter score 0-4, HPAF-II, 0.333 nM: 2 score
  scatter score 0-4, HPAF-II, 1.000 nM: 3 score
  scatter score 0-4, HPAF-II, 3.000 nM: 4 score
  scatter score 0-4, HPAF-II, 9.000 nM: 4 score
[4]
  scatter score 0-4, MLP29, 0.001 nM: 0 score
  scatter score 0-4, MLP29, 0.004 nM: 0 score
  scatter score 0-4, MLP29, 0.012 nM: 0 score
  scatter score 0-4, MLP29, 0.037 nM: 0 score
  scatter score 0-4, MLP29, 0.111 nM: 1 score
  scatter score 0-4, MLP29, 0.333 nM: 2 score
  scatter score 0-4, MLP29, 1.000 nM: 3 score
  scatter score 0-4, MLP29, 3.000 nM: 4 score
  scatter score 0-4, MLP29, 9.000 nM: 4 score
[5]
  protection from staurosporine, viability EC50, MCF10A cells: 31.9 nM
  protection from staurosporine, viability EMAX, MCF10A cells: 50.2%
[6]
  protection from staurosporine, viability EC50, MLP29 cells: 31 nM
  protection from staurosporine, viability EMAX, MLP29 cells: 51.3%
[7]
  branches per spheroid, LOC cells, 0.5 nM: 8.7 branches
  branches per spheroid, LOC cells, 2.5 nM: 12.7 branches
  branches per spheroid, LOC cells, 12.5 nM: 15.7 branches
[8]
  branches per spheroid, MLP29 cells, 0.5 nM: 11.7 branches
  branches per spheroid, MLP29 cells, 2.5 nM: 15.7 branches
  branches per spheroid, MLP29 cells, 12.5 nM: 24.7 branches
[9]
  EC50: 0.572 nM
  EMAX: 106 % relative to control
[10]
  EC50: 0.585 nM
  EMAX: 115 % relative to control
[11]
  % binding (EMAX) compared to WT MET: 99.8 % WT MET ECD
[12]
  % binding (EMAX) compared to WT MET: 102 % WT MET ECD
[13]
  % binding (EMAX) compared to WT MET: 59.6 % WT MET ECD
[14]
  % binding (EMAX) compared to WT MET: 61.6 % WT MET ECD
Human MET ECD [15]
  EC50: 0.203 nM
  EMAX (OD450): 2.46 AU
Mouse MET ECD
  EC50: 0.293 nM
  EMAX (OD450): 2.24 AU
Human MET ECD [16]
  % binding (EMAX) compared to WT MET: 100 % WT MET ECD
[17]
  IC50: 1.42 nM
  IMAX: 93.6%
[18]
  IC50: 1.56 nM
  IMAX: 89.2%
